How the values were obtained:
Assay in all cases: SPR; Biacore 3000; hIgG, hIgM or hIgA amine-coupled to CM-5 chips (10 mM sodium acetate, pH 5.0, 4.5 or 4.0); LD5 or SpA as analyte in serial 1:2 dilutions from 1.25 and 0.8 uM; flow 40 ul/min; NaCl/HEPES with 0.005% surfactant P20; regeneration 100 mM alanine-HCl pH 2.5
[1] = biological target: human IgM (human)
[2] = biological target: human IgG (human)
[3] = biological target: human IgA (human)

staphylococcal protein A (SpA) (from UniProt P02976 37-485) (natural protein)
Kd [1]: 7.15 nM | koff [1]: 0.000817 s⁻¹ | kon [1]: 115000 M⁻¹ s⁻¹ | Ka [2]: 3.45e+09 M⁻¹ | Kd [2]: 0.29 nM | koff [2]: 4.4e-05 s⁻¹ | kon [2]: 154000 M⁻¹ s⁻¹ | Kd [3]: 7.03 nM | koff [3]: 0.00292 s⁻¹ | kon [3]: 416000 M⁻¹ s⁻¹

— article PMC3077374
